From US20150366960A1 come the findings set out here.

The target of assay [1] is MARM B1 F protein (RSV B 18537 F, N201D) (Human respiratory syncytial virus, D25-resistant mutant of strain 18537) (UniProt P13843).
Assay [2] addresses MARM A1 F protein (RSV A2 F, N208Y) (Human respiratory syncytial virus, D25-resistant mutant of strain A2) (UniProt P03420).
For assay [3] the target is unchanged. Nature of the assay: cell-based or functional assay.
The target in assay [4] is MARM B2 F protein (RSV B 18537 F, L204V) (Human respiratory syncytial virus, D25-resistant mutant of strain 18537) (UniProt P13843). Nature of the assay: cell-based or functional assay.
Assay [5] deals with MARM B1 F protein (RSV B 18537 F, N201D) (Human respiratory syncytial virus, D25-resistant mutant of strain 18537) (UniProt P13843). Nature of the assay: cell-based or functional assay.
The target of assay [6] is MARM B2 F protein (RSV B 18537 F, L204V) (Human respiratory syncytial virus, D25-resistant mutant of strain 18537) (UniProt P13843).
Assay [7] concerns the target RSV A2 F protein on untreated cells (pre-fusion form) (Human respiratory syncytial virus, strain A2) (UniProt P03420).
For assay [8] the target is unchanged. Nature of the assay: cell-based or functional assay.
The target in assay [9] is HR1 construct containing amino acids 153-221 of RSV A2 F protein (Human respiratory syncytial virus, strain A2).
Assay [10] has as its target SK-epitope: amino acids 195-228 of RSV A2 F protein (C212S) in the inhibitor loop of Ecballium elate (Human respiratory syncytial virus, strain A2 (insert); Ecballium elaterium (scaffold)).
Assay [11] addresses RSV A2 F protein on untreated cells (pre-fusion form) (Human respiratory syncytial virus, strain A2) (UniProt P03420). The source holds these as a separate data set.
In assay [12] the target is RSV-F protein (as used in the D25 competition binding assay) (respiratory syncytial virus, strain not stated).
Assay [13] concerns the target RSV-B F protein from strain 18537 (wild type) (Human respiratory syncytial virus, strain 18537 (subtype B)) (UniProt P13843).
Assay [14] deals with RSV-F protein (as used in the D25 competition binding assay) (respiratory syncytial virus, strain not stated). Nature of the assay: competition ELISA on infected cells against biotin-labeled D25 at 100 ng/ml constant, A450 [cont'd) D].
For assay [15], the target named is RSV-B F protein from strain 18537 (wild type) (Human respiratory syncytial virus, strain 18537 (subtype B)) (UniProt P13843). Nature of the assay: cell-based or functional assay.
For assay [16], the target named is MARM A1 F protein (RSV A2 F, N208Y) (Human respiratory syncytial virus, D25-resistant mutant of strain A2) (UniProt P03420). The source holds these as a separate data set.
In assay [17] the target is RSV-B F protein from strain 18537 (wild type) (Human respiratory syncytial virus, strain 18537 (subtype B)) (UniProt P13843). This is another data set of the same source.
In assay [18] the target is MARM B2 F protein (RSV B 18537 F, L204V) (Human respiratory syncytial virus, D25-resistant mutant of strain 18537) (UniProt P13843). The source holds these as a separate data set.
The target of assay [19] is MARM B1 F protein (RSV B 18537 F, N201D) (Human respiratory syncytial virus, D25-resistant mutant of strain 18537) (UniProt P13843). This is another data set of the same source.

Broadly, the Kd is the concentration at which binding is half-saturated.

Read-outs that look alike come from different tables or passages of the source.

Turning to palivizumab (antibody), the IC50 (read off the curve) was determined as 200 µg/mL in assay [1], 40 µg/mL in [2] and 300 µg/mL in assay [6]. Also, the RSV microneutralization assay (antibody concentration able to neutralize) in assay [3], in assay [4] and in assay [5] was 100 µg/mL each time.

Take monoclonal antibody D25: the IC50 (read off the curve) was 10 µg/mL in [7], 0.1 µg/mL in [11], 0.6 µg/mL in assay [12] and 0.07 µg/mL in assay [13]. For the same substance, the RSV microneutralization assay (antibody concentration able to neutralize) in assay [8] came to 1 µg/mL. Moreover, the Kd in assay [9] amounted to 1.9 nM; in assay [10], 0.0585 nM.

In assay [14], anti-RSV-F antibody AM22 registered an IC50 (read off the curve) of 2 µg/mL.

For the substance motavizumab (antibody), the RSV microneutralization assay (antibody concentration able to neutralize) in [15] was less than 100 ng/mL; in [3], less than 0.1 µg/mL; in assay [4] it was less than 0.1 µg/mL; in assay [5], less than 0.1 µg/mL. The IC50 (read off the curve) is 0.1 µg/mL in [16], 0.1 µg/mL in [17], 0.04 µg/mL in [18] and 0.06 µg/mL in assay [19].
